{
  "source": "patent US20100119588A1",
  "binders": {"B1": {"name": "filamentous phage fd presenting peptide s-2 (SEQ ID NO: 3) (peptide)", "chain": "ARLPRTMVHPKPAQP", "modifications": "not checked"}, "B2": {"name": "A-1 peptide, chemosynthesized, …-NH2 (peptide)", "peptide": "ARLSPTMVHPNGAQP-NH2"}, "B3": {"name": "s-2 peptide, chemosynthesized, …-NH2 (peptide)", "peptide": "ARLPRTMVHPKPAQP-NH2"}, "B4": {"name": "e-1 peptide, chemosynthesized, …-NH2 (peptide)", "peptide": "ARLPPTMVRPNGPQP-NH2"}},
  "key": {"[1]": {"target": "hemagglutinin (HA) of influenza virus type A subtype H3 A/Wuhan/359/95 (H3N2), ether extract (influenza virus type A, A/Wuhan/359/95 (H3N2))", "assay": "phage ELISA, HA immobilised on plate, normalised to A-1 = 1"}, "[2]": {"target": "hemagglutinin (HA) of influenza virus type A subtype H1 A/PR/8/34 (H1N1), ether extract (influenza virus type A, A/PR/8/34 (H1N1)), P03452", "assay": "phage ELISA, HA immobilised on plate, normalised to A-1 = 1"}, "[3]": {"target": "hemagglutinin H3 (GM3 inhibition ELISA, strain not stated)"}, "[4]": {"target": "hemagglutinin (HA) of influenza virus type A subtype H3 A/Wuhan/359/95 (H3N2), ether extract (influenza virus type A, A/Wuhan/359/95 (H3N2))"}},
  "note": "No end group written: not given here.",
  "data": [
    {"binder": "B1", "values": [
      {"measurement": "fold binding activity relative to A-1", "setting": "[1]", "value": 3, "unit": "fold"},
      {"measurement": "fold binding activity relative to A-1", "setting": "[2]", "value": 3, "unit": "fold"}
    ]},
    {"binder": "B2", "values": [
      {"measurement": "IC50", "setting": "[3]", "value": 1900, "unit": "µM"}
    ]},
    {"binder": "B3", "values": [
      {"measurement": "fold binding relative to A-1", "setting": "[4]", "value": 2.1, "unit": "fold"}
    ]},
    {"binder": "B4", "values": [
      {"measurement": "fold binding relative to A-1", "setting": "[4]", "value": 1.2, "unit": "fold"}
    ]}
  ]
}
